Results published in patent publication US20230212549A1, “COMPOUNDS COMPRISING A […] LIGAND AND USE THEREOF” (priority 2021, published 2023).
Each block holds one binder with its values, some of them ahead of it. Bridge positions count the residues as written; N and C are the ends.

Assays:
D2S (h) (human), P14416 = target: T1, D2S (h) (human), P14416; test: radioligand displacement (agonist radioligand), 10 µM
T1 chain: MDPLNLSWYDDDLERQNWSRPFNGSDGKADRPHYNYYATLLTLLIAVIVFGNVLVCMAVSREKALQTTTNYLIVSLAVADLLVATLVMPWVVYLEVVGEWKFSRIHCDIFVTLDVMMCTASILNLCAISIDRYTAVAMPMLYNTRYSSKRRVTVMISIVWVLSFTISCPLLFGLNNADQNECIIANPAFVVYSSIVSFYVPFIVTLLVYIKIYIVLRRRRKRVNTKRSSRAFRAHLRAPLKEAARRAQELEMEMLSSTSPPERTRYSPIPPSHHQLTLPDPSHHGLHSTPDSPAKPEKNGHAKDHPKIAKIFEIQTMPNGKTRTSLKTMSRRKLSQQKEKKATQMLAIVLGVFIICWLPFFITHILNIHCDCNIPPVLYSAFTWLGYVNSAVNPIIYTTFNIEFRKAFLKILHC

GR (h) (human), P04150 = target: T2, GR (h) (human), P04150; test: as above; conditions: remark: other sources report otherwise
T2 chain: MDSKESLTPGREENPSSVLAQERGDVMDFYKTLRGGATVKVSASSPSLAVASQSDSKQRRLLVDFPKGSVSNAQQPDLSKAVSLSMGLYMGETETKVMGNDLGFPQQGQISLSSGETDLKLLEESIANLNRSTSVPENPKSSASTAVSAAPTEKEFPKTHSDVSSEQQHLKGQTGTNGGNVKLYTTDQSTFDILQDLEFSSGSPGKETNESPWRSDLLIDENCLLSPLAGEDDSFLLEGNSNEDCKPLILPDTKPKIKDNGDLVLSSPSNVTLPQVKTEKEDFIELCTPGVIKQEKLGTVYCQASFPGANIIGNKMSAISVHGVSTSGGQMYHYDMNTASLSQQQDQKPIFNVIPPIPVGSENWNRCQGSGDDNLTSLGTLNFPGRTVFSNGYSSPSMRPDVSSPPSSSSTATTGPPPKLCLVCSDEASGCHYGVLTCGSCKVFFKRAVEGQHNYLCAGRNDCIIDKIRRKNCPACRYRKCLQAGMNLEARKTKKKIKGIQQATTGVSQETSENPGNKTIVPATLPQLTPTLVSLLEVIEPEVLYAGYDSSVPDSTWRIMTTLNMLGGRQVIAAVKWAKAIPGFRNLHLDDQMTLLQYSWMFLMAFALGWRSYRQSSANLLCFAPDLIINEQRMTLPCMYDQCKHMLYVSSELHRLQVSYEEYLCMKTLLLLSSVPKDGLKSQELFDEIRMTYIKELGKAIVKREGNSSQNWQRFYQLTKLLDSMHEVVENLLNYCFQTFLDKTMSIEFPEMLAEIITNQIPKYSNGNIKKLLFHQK

CB1 (h) (human), P21554 = target: T3, CB1 (h) (human), P21554; test: as above; conditions: remark: other sources report otherwise
T3 chain: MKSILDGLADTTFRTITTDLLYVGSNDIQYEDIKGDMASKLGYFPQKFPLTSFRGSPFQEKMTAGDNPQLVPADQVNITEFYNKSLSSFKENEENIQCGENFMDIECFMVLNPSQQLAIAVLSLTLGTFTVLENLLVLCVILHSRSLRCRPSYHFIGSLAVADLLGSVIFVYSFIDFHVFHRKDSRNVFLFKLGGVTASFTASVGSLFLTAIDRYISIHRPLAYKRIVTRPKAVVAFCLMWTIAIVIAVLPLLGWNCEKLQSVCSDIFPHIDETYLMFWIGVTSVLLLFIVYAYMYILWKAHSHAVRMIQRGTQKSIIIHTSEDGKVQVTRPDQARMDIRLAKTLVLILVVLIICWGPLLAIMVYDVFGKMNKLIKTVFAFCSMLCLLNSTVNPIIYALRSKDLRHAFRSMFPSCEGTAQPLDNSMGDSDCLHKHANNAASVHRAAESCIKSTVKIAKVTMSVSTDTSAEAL

[1] = target: 5-HT2B (h) (human), P41595; test: as above; conditions: remark: other sources report otherwise
[2] = target: T4, CCK1 (CCKA) (h) (human), P32238; test: as above; conditions: remark: other sources report otherwise
T4 chain: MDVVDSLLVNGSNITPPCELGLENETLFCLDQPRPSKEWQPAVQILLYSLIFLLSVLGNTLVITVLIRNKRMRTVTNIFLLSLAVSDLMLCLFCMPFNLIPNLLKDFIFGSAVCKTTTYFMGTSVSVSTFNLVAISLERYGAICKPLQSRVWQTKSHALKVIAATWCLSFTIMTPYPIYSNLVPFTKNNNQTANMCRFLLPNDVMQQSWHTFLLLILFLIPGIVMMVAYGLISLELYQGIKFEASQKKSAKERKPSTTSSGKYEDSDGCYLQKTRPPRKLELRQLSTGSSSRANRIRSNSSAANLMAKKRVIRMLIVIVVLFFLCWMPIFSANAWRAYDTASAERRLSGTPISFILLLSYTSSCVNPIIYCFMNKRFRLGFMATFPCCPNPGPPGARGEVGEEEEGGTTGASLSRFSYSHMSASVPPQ

[3] = target: T5, 5-HT1A (h) (human), P08908; test: as above; conditions: remark: other sources report otherwise
T5 chain: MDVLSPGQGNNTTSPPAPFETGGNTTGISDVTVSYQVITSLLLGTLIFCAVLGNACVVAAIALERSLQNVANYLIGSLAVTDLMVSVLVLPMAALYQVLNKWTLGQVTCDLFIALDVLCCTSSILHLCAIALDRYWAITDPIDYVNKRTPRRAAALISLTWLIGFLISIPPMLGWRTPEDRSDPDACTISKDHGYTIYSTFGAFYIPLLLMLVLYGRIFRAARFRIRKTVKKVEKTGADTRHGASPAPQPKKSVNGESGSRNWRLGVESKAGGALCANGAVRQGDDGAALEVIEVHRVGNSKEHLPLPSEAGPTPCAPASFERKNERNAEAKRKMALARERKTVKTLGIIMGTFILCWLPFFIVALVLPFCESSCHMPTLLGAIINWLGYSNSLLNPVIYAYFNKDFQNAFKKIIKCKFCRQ

V1a (h) (human), P37288 = test: as above; conditions: remark: other sources report otherwise
BZD (central) = test: as above
[4] = target: 5-HT1B(h) (human), P28222; test: radioligand displacement (antagonist radioligand), 10 µM; conditions: remark: other sources report otherwise
5-HT1B(h) (human), P28222, sequence (P28222 whole entry): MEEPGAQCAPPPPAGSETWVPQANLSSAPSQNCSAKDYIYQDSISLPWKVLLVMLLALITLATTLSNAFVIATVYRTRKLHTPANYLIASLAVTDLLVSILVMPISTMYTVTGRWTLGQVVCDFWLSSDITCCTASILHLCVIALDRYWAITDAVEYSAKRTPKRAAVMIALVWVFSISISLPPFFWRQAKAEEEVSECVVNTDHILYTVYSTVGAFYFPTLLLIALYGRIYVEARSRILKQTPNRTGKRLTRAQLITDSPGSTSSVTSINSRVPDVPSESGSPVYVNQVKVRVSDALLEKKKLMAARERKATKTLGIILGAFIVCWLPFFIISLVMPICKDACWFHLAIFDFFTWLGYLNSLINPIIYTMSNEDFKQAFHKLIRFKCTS

5-HT2B (h) (human), P41595, sequence (P41595 whole entry): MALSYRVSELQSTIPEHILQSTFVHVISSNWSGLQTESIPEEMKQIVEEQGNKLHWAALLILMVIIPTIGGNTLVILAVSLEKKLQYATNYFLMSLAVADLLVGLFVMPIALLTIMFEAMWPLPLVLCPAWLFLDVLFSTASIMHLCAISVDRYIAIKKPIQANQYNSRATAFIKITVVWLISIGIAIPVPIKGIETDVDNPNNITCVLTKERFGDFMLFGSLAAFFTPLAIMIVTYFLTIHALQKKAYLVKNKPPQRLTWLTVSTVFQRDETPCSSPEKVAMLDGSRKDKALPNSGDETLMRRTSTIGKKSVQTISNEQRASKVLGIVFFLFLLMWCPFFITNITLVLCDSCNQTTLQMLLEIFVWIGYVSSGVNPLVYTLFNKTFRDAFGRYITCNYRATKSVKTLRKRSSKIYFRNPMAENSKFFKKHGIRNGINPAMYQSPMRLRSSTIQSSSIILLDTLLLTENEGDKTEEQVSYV
V1a (h) (human), P37288, sequence (P37288 whole entry): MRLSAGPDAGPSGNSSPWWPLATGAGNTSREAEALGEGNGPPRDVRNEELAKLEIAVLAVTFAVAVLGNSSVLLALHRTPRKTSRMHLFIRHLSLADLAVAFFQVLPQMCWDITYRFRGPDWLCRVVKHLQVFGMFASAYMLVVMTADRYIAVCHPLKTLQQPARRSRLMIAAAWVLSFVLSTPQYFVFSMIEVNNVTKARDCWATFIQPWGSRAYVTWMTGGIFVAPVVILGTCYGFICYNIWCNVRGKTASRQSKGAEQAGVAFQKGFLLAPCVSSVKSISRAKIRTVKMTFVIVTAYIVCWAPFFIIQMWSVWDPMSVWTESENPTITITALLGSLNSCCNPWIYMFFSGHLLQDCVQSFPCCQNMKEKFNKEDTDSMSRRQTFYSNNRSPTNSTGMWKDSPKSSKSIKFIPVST

% Inhibition of Specific Binding (D2S (h) (human), P14416): -7% | % Inhibition of Specific Binding (GR (h) (human), P04150): 0% | % Inhibition of Specific Binding (CB1 (h) (human), P21554): -7% | % Inhibition of Specific Binding [1]: 3% | % Inhibition of Specific Binding [2]: 16% | % Inhibition of Specific Binding [3]: -5% | % Inhibition of Specific Binding (V1a (h) (human), P37288): 1% | % Inhibition of Specific Binding (BZD (central)): 5% | % Inhibition of Specific Binding [4]: 8%
B1: Hex-[Cys(tMeBn(DOTA-AET))-Pro-Pro-Thr-Gln-Phe-Cys]-OH (peptide)
peptide: Hex-CPPTQFC-OH
modifications: bridge 1-7; not fully specified (bridges); printed as Hex-[Cys(tMeBn(DOTA-AET))-Pro-Pro-Thr-Gln-Phe-Cys]-OH

B2: Hex-[Cys(tMeBn(DOTA-PP))-Pro-Pro-Thr-Gln-Phe-Cys]-Asp-NH2 (peptide)
peptide: Hex-CPPTQFCD-NH2
modifications: bridge 1-7; not fully specified (bridges); printed as Hex-[Cys(tMeBn(DOTA-PP))-Pro-Pro-Thr-Gln-Phe-Cys]-Asp-NH2
% Inhibition of Specific Binding (D2S (h) (human), P14416): 15% | % Inhibition of Specific Binding (GR (h) (human), P04150): -2% | % Inhibition of Specific Binding (CB1 (h) (human), P21554): 5% | % Inhibition of Specific Binding [1]: 2% | % Inhibition of Specific Binding [2]: 24% | % Inhibition of Specific Binding [3]: -3% | % Inhibition of Specific Binding (V1a (h) (human), P37288): 16% | % Inhibition of Specific Binding (BZD (central)): -9% | % Inhibition of Specific Binding [4]: -11%
